Paper PMC9133088

How the values were obtained:
[1] = RagD GTP hydrolysis, GTP-agarose pulldown, glucose-starved cells; conditions: glycan lost; control: overexpressed WT LARS1
[2] = lysosomal fractionation, leucine added without glucose; conditions: glycan lost; control: overexpressed WT LARS1
[3] = immunoprecipitation and phospho-S720 immunoblot; conditions: glycan lost
[4] = lysosomal fractionation, glucose starvation; conditions: glycan lost; control: control siRNA
[5] = in vitro GTPase assay, GTP-agarose pulldown; conditions: glycan lost; control: unmodified WT LARS1 with ATP and leucine
[6] = near-UV circular dichroism; conditions: glycan lost; control: WT LARS1, same OGT1 condition
[7] = LARS1 immunoprecipitation, immunoblot, knock-in cells; conditions: glycan lost; control: WT SW620 cells, glucose starvation
[8] = lysosomal fractionation, knock-in cells, glucose starvation; conditions: glycan lost; control: WT SW620 cells
[9] = control: control siRNA, glucose starvation

What does the source list for “leucyl-tRNA synthetase 1 (LARS1): S1042A”?
enzymatic_activity [1]: increases; localisation_or_trafficking [2]: increases; other: S720 phosphorylation by ULK1 ([3]; control: overexpressed WT LARS1, glucose starvation): abolishes

With “leucyl-tRNA synthetase 1 (LARS1): GFPT1 siRNA” as the substance, how does the localisation_or_trafficking [4] read?
Its localisation_or_trafficking is “increases”.

What about the “other: S720 phosphorylation by ULK1” value [3, 9] of the same substance?
Its value is “decreases”.

Which enzymatic_activity [5] does the source give for “leucyl-tRNA synthetase 1 (LARS1): S1042A ± OGT1” here?
Its enzymatic_activity is “no change”.

For “leucyl-tRNA synthetase 1 (LARS1): OGT1 siRNA”, which “other: S720 phosphorylation by ULK1” value [3, 9] is on record?
Its value is “decreases”.

With “leucyl-tRNA synthetase 1 (LARS1): S1042A without OGT1” as the substance, how does the structure_or_conformation [6] read?
Its structure_or_conformation is “no change”.

With “leucyl-tRNA synthetase 1 (LARS1): S1042A knock-in” as the substance, how does the “other: S720 phosphorylation by ULK1” value [7] read?
Its value is “decreases”.

What about the localisation_or_trafficking [8] of the same substance?
Its localisation_or_trafficking is “increases”.

For “leucyl-tRNA synthetase 1 (LARS1): S1042A with OGT1”, which structure_or_conformation [6] is on record?
The structure_or_conformation was “changes”.
